Test results reported in the DeepSol protein solubility set.

Assay: soluble on expression in E. coli; label from the status in PepcDB or PDB records

**Q.** With “MAHHHHHHMQANLWLKGQTSTPLQRICDPVPNLLISQSSQGGQRALWLLHRPESVLGLVVSPQWQGESGDHELCDASVVSKRKIVRVMKHLHSLPFRVAGSSPLRPPMVVHKNHLVGWRIDGKAAPLYAHTLDQLAKLKPTQFKTIEPKNAFICRTYYEWDNWKEVSMEPGWTWHHVDEEIANNILDGTLTFDGLRATATDTP” as the sequence, how does the “soluble on expression in E. coli” value read?
**A.** soluble

**Q.** With “MAHHHHHHMQCSSLKTGCLKLLSQLPEGLQQAGRTAVSAHQRSYCPYSNFAVGAALLHDDGKVTSGCNYETCVYKGTCAEACAIVKANMDGYRTAQAVAIYGRSVLPTAAAAAADATVPPCGFCRQLLAEVADLSGNMNDFLVVLVTFDQEHARLFRLSELLPQPFGPSSIGMDVAALATGEHSRCPGTF” as the sequence, how does the “soluble on expression in E. coli” value read?
**A.** not soluble

**Q.** Which “soluble on expression in E. coli” value does the source give for “MAHHHHHHMQGTGAVSASHCTFNQRSGVSKKEELGDAMKVDNVFPGGPKKDVLVSCANKSRQTAAGIFVHWCCRCESETSGDRGNVCEFFGDCECDDIYSTSNVPKCVKGDHMWRDSSTALRAVLQDVKGRDACNISTPNGKEILMKLTREELTSNIAPQDSSSKIFLFLLAALLMQDESVAQTSN” here?
**A.** not soluble

**Q.** With “MAHHHHHHMQKTILQILREQDDASSSCVLALLKGNASFQCLSKSEGEDILKRDNEDAEKLSDGIRIAIRKGIVSGKPDVSPVNKLNVVGLSAQEVTDKIVAALPSKNGNVIILQGLSGTGKGTTVSKLKDALPKCVTWSNGNIFRSYTYLCNEVLAAQGKEITEESLTDELLSSVEKRVTFVKCEDGMFHTMLDGTRRVADVQNTLLKTPLISSKVPTVAQQTQGEVIRFGAGAVKQLSADGYNVILEGRSQTLDYISSPLRFELIIPDVEVLGQRRAAQRVMAKALEMLDDSASDEEVSKVLVKAVETLQ” as the sequence, how does the “soluble on expression in E. coli” value read?
**A.** soluble

**Q.** With “MAHHHHHHMQRSMMRELCYVGSVALSPMRPKKNAFKLRERGETTRLFCANSEMSNFYGINESGFSNTRPPPYLLRFDKCNDVIAYTNEIDNESLKQIKNLAKLHIIKGHITILPDVHLGKGIIIGSVFLTKHFIIPNGVGVDIGCGVLCVKINKLKKKNLHEGVINNIYKKIKRNIPLSFDYHEKEVFDAKNVLDELVAKYASSNMAHIMNPKHLKQMGTLGGGNHFIEIAYDASGDVKAEPINGNLSGEAHQNDNTQKYACQQNHYPESDIYILIHSGSRNIGKSTAEFYDDLASHESKVKRNDLAYLDLRKKHGQNYLRDMQLCQEYAKYNRIYMMKIIEQIIKEELNCTLDWQNAINIHHNFCNHELVNYFHNGEVKKEYMYVTRKGATSSMKNQLGIIPGNMKVGSYIVRGKGNKLSYNSCSHGCGRVLSRTHAKKIINQADFVNIMKGVRCDTSAKIRDEATQAYKNLNKVLRNQDSLIHVVRRLLPLINVKGG” as the sequence, how does the “soluble on expression in E. coli” value read?
**A.** not soluble

**Q.** Which “soluble on expression in E. coli” value does the source give for “MAHHHHHHMRAEIPGVVPAVVSQVSEHQLPHLYPRHTAVTDSTALPREKSTLQRTDTTDSQLFSLADLQLARGNTRRPSRSRPTSPIRKDRIPRPPSVEFDVHLEVPRPHIRVSALPKHVMWPLPIPLPNLGNTCYMNSVVQCLRQSPSLALALEQCQLNAESHPAAAAMLNFFRMSEGDPKEFLVTFKSEAAKYNDEFKDFTQADAHEFLRTFLSVVHNEINTAPRAKLHIDDMGYVGKEDEETAFGMWRDQFACFDKSPIYDLFGGTTLGTCFCNSCENSSRTFEAFLDLSLPIGHEMPFGANLEAILQANFVEGKAEKMDGSNRIYCSRCKRLRSGSRCVVVRQWPKLLVLHLKRFDEYGKKNLVNVIYPETFMTGGEKSLRYSLYGVLMHSGTEMSGHYTSYVRVAFGEWYLCNDGAITPSRSVDVMQELEKAYILFYAEVPQVEPTFF” here?
**A.** not soluble

**Q.** For “MAHHHHHHMRCVRVVCQRFVEFVTFCSGVVPPLALLGYPLPGSGCQKTHPTALSLKGARVGDADAGNADTWLSRAIPRNWAAFCVNLQARGVGLVTVGLSYGSPSVVVRQVLGWGCGGNELRLYGFCRSSVLCRVWGVSVPLSAFTPCSVDDSIFSLLRYRIFRACAS”, which “soluble on expression in E. coli” value is on record?
**A.** not soluble

**Q.** Which “soluble on expression in E. coli” value does the source give for “MAHHHHHHMRGCLHFTRVARHKRHDKGGNAHNFAFDTLTKVYRDAVYLPQEKYRRGLMHPERSPGAPPSQAALVAPSSSSDVTNHVGNIGVMSSVATKLSDWMEQQPHHQTKHHTNGGGGTGHASATASCATPIARRSVASSSPSPAPSAAAATTDESHVDDEAIRRRLRAHLFSDKIQPGQPRTPPSTPVATASASPRRSGVQAEILSVYRSMLREVSRMQDADTRRSLSAYIRQEYDKQCDIPRKNIMKIEWRLNYGKRKLEELQAMSKHTKFTMMR” here?
**A.** not soluble

**Q.** For “MAHHHHHHMRIHAPPYPFFNFLFLCFHTEPRRIPRRTVSYTQVVPASIFHGMADRALTCVRPAAYFLPGDRASSFLSSGAILLFEERVCTPHKASESTVCPVAGHSKVFAPSCYVEPFSIIEVALEERRNRVGRMSWCFRLFAIKLRGGNPTQFPPPASSVEHVQV”, which “soluble on expression in E. coli” value is on record?
**A.** not soluble

**Q.** For “MAHHHHHHMRLASPFSRAAWQLQETHNLSPLLRRRACAAPVAATSPSAFCTARRCLSQQASHWLNKLRYGADDAPTMGSWDSAYEDDAMDTRKLYCKALVHASGGSRLARDWIAGCAALTSPDPSLIYTALQHAATEADVEELREHILGRLLAQESPRRGGRSGGSCDNEVRTSFGMYEESEREVVVPGTGNVAVKRAVAPNCAGQSSIHERDGKDGASEATSPPITSEGIRDAEHYLLQRSREVRCFMYDAMTASLFHSNNDLRTVEAARRHTFWIGLTQFGLSFDELTALWRLVEAELLLKKEKIKVLGQPWGE”, which “soluble on expression in E. coli” value is on record?
**A.** soluble

**Q.** For “MAHHHHHHMRNLSDQFPVEDSPMNARRQMANGDDHSQRDSPMNHDVAHTYEGNTLDGHLTKAESASMTKTPTAAANGACANSAPSEYVVAKERLEAARAAHKQRLREIKDDKSLKIKSMPSLEELRDERVRLSEQVLHHKDEQDSLALDIEGLEGAAEVYQLAARVQRLEHFANRAYEYAEETLPRDIERTLEEDRQLSNRELCAYIQELQSKRANTLKKVVASQEGMVKRNLRKGATATTAALGEDADPMEAKAVAHTQENKDECVVLHQKIRRFCAMRTKLQSDILKEKSASKKMEERMCAAIRTAELANARDARMCGELNNRNAAATTNSQLLIDQLNVGHYGLGNAPSTKQLLEDRKAREALLETTETDQQQYGRFVSSGSLGSRQSYANSQSSHQRAIKPPLVASKPTAAQRARDDASRSSREEFAQMLRRNSDGNSYQASRSQSLSKPPLVASKPTASQQSRETALRGEREEVSVSRTVARSNSLFSDVRPPSLAAKSTASQRSRDRQ”, which “soluble on expression in E. coli” value is on record?
**A.** not soluble

**Q.** For “MAHHHHHHMRSNCAPLGRVKIRILDLTVLSEDASDFVYDGLYVVSRLGPDAQRTNILCNGADSAGGRCWNEVFMFHFEGNPPEFRETAPTLSKSGLDVTVGQHISTYHDGPSLGNPSREYILPQQPHEVKRGLLAPPWMGGSCALPAITLELWRYSLSSDDCLARYQFCIPLEMSSGNIADRVVRLASASSYSVQFALRIRVALSGYDGGALGFENYMPAMSPANLPVLWRH”, which “soluble on expression in E. coli” value is on record?
**A.** not soluble

**Q.** Which “soluble on expression in E. coli” value does the source give for “MAHHHHHHMSAMSSSDDAPPHQRLASEQSKRDSGAHVGAREHIHDAPTLSARARFLRELERYASDDDDYGGNGGAAVVGAGPMRQPNQANGAPQRRTAFPLVSATRAAAPSVGPSSSSDFFFGGEGGSHDEADDEDVGEDAVWSTASAASLARTLNGVPVTGSTSDIGTTGGSAAPSRVGLQLLHRMHALSTSGDRRSSGHDSAVHSAATRANVMIPQTSPTPTSSADFEVVHAYVPLSTGGFLSTANAAHDTMEGYQVRIGDVLSLRKPLSCTDPPPSSAVASAPASSPTTSTATPSIAALTLTTGSAAAGASATGSLVKDVAQKAMGHFKSAATFTSEEQKYGRKLTPDMVRLLFEVTRVDYQGRSIEALFLDGTRAKVSFFEVRPAGYVERKMYATWKADPSSRPVTIIHSNASSPTTSSAPNGAVMPSSVPSPALPPPPSVTAAAWWVIPRLLVRVTTEAAGDWYGKKCVVKAVQRSENRVRLAEWVEEGRSDGGESGSRSFHNCGKPTAATAETRELIGVDGLETVVPKKGGRAMVVLGSRRGEMCTVRNRVRGADGELTAVEVEISRTKEVMTLQAGELCALAR” here?
**A.** soluble
